Measurements as given in patent US20140213513A1 (Sanofi, priority 2012, published 2014).
*1 amine or outer side, *2 acyl side, *3 side chain or, on linkers, in order; H or OH if unused. Where no end group is shown, it is not given here. Side-chain parts run from the residue outwards. [ ]: non-standard residue; d: D form. The star is where a group is joined. γGlu = O=C(O)[C@H](CCC(=O)[*:2])N[*:1]; Palmitoyl = CCCCCCCCCCCCCCCC(=O)*; Aib = CC(C)(N)C(=O)O

How the values were obtained:
Assay in all cases: cell-based or functional assay
human GIP receptor = biological target: T1, human GIP receptor (human, UniProt P48546 22-466)
T1 sequence (looked up): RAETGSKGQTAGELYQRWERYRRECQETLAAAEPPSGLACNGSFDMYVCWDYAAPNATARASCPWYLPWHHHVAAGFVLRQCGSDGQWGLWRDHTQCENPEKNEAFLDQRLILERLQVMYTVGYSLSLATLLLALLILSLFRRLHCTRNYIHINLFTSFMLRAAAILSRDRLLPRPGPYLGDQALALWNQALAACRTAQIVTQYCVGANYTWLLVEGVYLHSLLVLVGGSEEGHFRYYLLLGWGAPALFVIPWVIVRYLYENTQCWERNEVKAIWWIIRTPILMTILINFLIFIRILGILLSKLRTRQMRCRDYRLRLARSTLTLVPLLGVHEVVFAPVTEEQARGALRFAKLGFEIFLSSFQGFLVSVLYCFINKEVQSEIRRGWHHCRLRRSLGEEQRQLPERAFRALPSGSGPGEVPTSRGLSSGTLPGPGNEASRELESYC

human GLP-1 receptor = human GLP-1 receptor (human, UniProt P43220 24-463)
human glucagon receptor = human glucagon receptor (human, UniProt P47871 26-477)
human glucagon receptor, sequence (P47871 26-477): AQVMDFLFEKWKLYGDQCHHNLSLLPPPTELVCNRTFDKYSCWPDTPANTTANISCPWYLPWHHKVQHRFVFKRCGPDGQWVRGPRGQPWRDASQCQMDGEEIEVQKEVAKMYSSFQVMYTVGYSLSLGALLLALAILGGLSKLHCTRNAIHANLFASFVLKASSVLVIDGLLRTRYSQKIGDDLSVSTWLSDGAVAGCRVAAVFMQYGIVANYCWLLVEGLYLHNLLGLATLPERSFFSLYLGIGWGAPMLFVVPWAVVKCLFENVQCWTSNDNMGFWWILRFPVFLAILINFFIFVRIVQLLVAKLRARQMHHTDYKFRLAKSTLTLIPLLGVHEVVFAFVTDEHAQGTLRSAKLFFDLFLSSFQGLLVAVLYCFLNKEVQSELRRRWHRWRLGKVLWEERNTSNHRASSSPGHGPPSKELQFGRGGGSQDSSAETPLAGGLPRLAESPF

B1: exendin-4 peptide analogue SEQ ID NO: 51 (peptide)
peptide: Y[Aib]QGTFTSDLSIQK([γGlu-Palmitoyl])DSRAQQDFIEWLKAGGPSSGAPPPS-NH2
modifications: N-terminus assumed
SMILES: CCCCCCCCCCCCCCCC(=O)N[C@@H](CCC(=O)NCCCC[C@H](NC(=O)[C@H](CCC(N)=O)NC(=O)[C@@H](NC(=O)[C@H](CO)NC(=O)[C@H](CC(C)C)NC(=O)[C@H](CC(=O)O)NC(=O)[C@H](CO)NC(=O)[C@@H](NC(=O)[C@H](Cc1ccccc1)NC(=O)[C@@H](NC(=O)CNC(=O)[C@H](CCC(N)=O)NC(=O)C(C)(C)NC(=O)[C@@H](N)Cc1ccc(O)cc1)[C@@H](C)O)[C@@H](C)O)[C@@H](C)CC)C(=O)N[C@@H](CC(=O)O)C(=O)N[C@@H](CO)C(=O)N[C@@H](CCCNC(=N)N)C(=O)N[C@@H](C)C(=O)N[C@@H](CCC(N)=O)C(=O)N[C@@H](CCC(N)=O)C(=O)N[C@@H](CC(=O)O)C(=O)N[C@@H](Cc1ccccc1)C(=O)N[C@H](C(=O)N[C@@H](CCC(=O)O)C(=O)N[C@@H](Cc1c[nH]c2ccccc12)C(=O)N[C@@H](CC(C)C)C(=O)N[C@@H](CCCCN)C(=O)N[C@@H](C)C(=O)NCC(=O)NCC(=O)N1CCC[C@H]1C(=O)N[C@@H](CO)C(=O)N[C@@H](CO)C(=O)NCC(=O)N[C@@H](C)C(=O)N1CCC[C@H]1C(=O)N1CCC[C@H]1C(=O)N1CCC[C@H]1C(=O)N[C@@H](CO)C(N)=O)[C@@H](C)CC)C(=O)O
Human GIP receptor
  EC50 hGIP R: 0.0063 nM
Human GLP-1 receptor
  EC50 hGLP-1 R: 0.0042 nM
Human glucagon receptor
  EC50 hGLUC R: 0.571 nM

B2: exendin-4 peptide analogue SEQ ID NO: 50 (peptide)
peptide: Y[Aib]QGTFTSDLSIQK([γGlu-Palmitoyl])DSRAVQDFIEWLKAGGPSSGAPPPS-NH2
modifications: N-terminus assumed
SMILES: CCCCCCCCCCCCCCCC(=O)N[C@@H](CCC(=O)NCCCC[C@H](NC(=O)[C@H](CCC(N)=O)NC(=O)[C@@H](NC(=O)[C@H](CO)NC(=O)[C@H](CC(C)C)NC(=O)[C@H](CC(=O)O)NC(=O)[C@H](CO)NC(=O)[C@@H](NC(=O)[C@H](Cc1ccccc1)NC(=O)[C@@H](NC(=O)CNC(=O)[C@H](CCC(N)=O)NC(=O)C(C)(C)NC(=O)[C@@H](N)Cc1ccc(O)cc1)[C@@H](C)O)[C@@H](C)O)[C@@H](C)CC)C(=O)N[C@@H](CC(=O)O)C(=O)N[C@@H](CO)C(=O)N[C@@H](CCCNC(=N)N)C(=O)N[C@@H](C)C(=O)N[C@H](C(=O)N[C@@H](CCC(N)=O)C(=O)N[C@@H](CC(=O)O)C(=O)N[C@@H](Cc1ccccc1)C(=O)N[C@H](C(=O)N[C@@H](CCC(=O)O)C(=O)N[C@@H](Cc1c[nH]c2ccccc12)C(=O)N[C@@H](CC(C)C)C(=O)N[C@@H](CCCCN)C(=O)N[C@@H](C)C(=O)NCC(=O)NCC(=O)N1CCC[C@H]1C(=O)N[C@@H](CO)C(=O)N[C@@H](CO)C(=O)NCC(=O)N[C@@H](C)C(=O)N1CCC[C@H]1C(=O)N1CCC[C@H]1C(=O)N1CCC[C@H]1C(=O)N[C@@H](CO)C(N)=O)[C@@H](C)CC)C(C)C)C(=O)O
Human GIP receptor
  EC50 hGIP R: 0.0479 nM
Human GLP-1 receptor
  EC50 hGLP-1 R: 0.01 nM
Human glucagon receptor
  EC50 hGLUC R: 1.72 nM

B3: exendin-4 peptide analogue SEQ ID NO: 47 (peptide)
peptide: Y[Aib]QGTFTSDLSIQK([γGlu-Palmitoyl])DKRAVQLFIEWLKNGGPSSGAPPPS-NH2
modifications: N-terminus assumed
SMILES: CCCCCCCCCCCCCCCC(=O)N[C@@H](CCC(=O)NCCCC[C@H](NC(=O)[C@H](CCC(N)=O)NC(=O)[C@@H](NC(=O)[C@H](CO)NC(=O)[C@H](CC(C)C)NC(=O)[C@H](CC(=O)O)NC(=O)[C@H](CO)NC(=O)[C@@H](NC(=O)[C@H](Cc1ccccc1)NC(=O)[C@@H](NC(=O)CNC(=O)[C@H](CCC(N)=O)NC(=O)C(C)(C)NC(=O)[C@@H](N)Cc1ccc(O)cc1)[C@@H](C)O)[C@@H](C)O)[C@@H](C)CC)C(=O)N[C@@H](CC(=O)O)C(=O)N[C@@H](CCCCN)C(=O)N[C@@H](CCCNC(=N)N)C(=O)N[C@@H](C)C(=O)N[C@H](C(=O)N[C@@H](CCC(N)=O)C(=O)N[C@@H](CC(C)C)C(=O)N[C@@H](Cc1ccccc1)C(=O)N[C@H](C(=O)N[C@@H](CCC(=O)O)C(=O)N[C@@H](Cc1c[nH]c2ccccc12)C(=O)N[C@@H](CC(C)C)C(=O)N[C@@H](CCCCN)C(=O)N[C@@H](CC(N)=O)C(=O)NCC(=O)NCC(=O)N1CCC[C@H]1C(=O)N[C@@H](CO)C(=O)N[C@@H](CO)C(=O)NCC(=O)N[C@@H](C)C(=O)N1CCC[C@H]1C(=O)N1CCC[C@H]1C(=O)N1CCC[C@H]1C(=O)N[C@@H](CO)C(N)=O)[C@@H](C)CC)C(C)C)C(=O)O
Human GIP receptor
  EC50 hGIP R: 0.0442 nM
Human GLP-1 receptor
  EC50 hGLP-1 R: 0.0156 nM
Human glucagon receptor
  EC50 hGLUC R: 2.39 nM

B4: exendin-4 peptide analogue SEQ ID NO: 10 (peptide)
peptide: Y[Aib]QGTFTSDLSIQK([γGlu-Palmitoyl])EKYAA[Aib]EFIEWLKNTGPSSGAPPPS-NH2
modifications: N-terminus assumed
SMILES: CCCCCCCCCCCCCCCC(=O)N[C@@H](CCC(=O)NCCCC[C@H](NC(=O)[C@H](CCC(N)=O)NC(=O)[C@@H](NC(=O)[C@H](CO)NC(=O)[C@H](CC(C)C)NC(=O)[C@H](CC(=O)O)NC(=O)[C@H](CO)NC(=O)[C@@H](NC(=O)[C@H](Cc1ccccc1)NC(=O)[C@@H](NC(=O)CNC(=O)[C@H](CCC(N)=O)NC(=O)C(C)(C)NC(=O)[C@@H](N)Cc1ccc(O)cc1)[C@@H](C)O)[C@@H](C)O)[C@@H](C)CC)C(=O)N[C@@H](CCC(=O)O)C(=O)N[C@@H](CCCCN)C(=O)N[C@@H](Cc1ccc(O)cc1)C(=O)N[C@@H](C)C(=O)N[C@@H](C)C(=O)NC(C)(C)C(=O)N[C@@H](CCC(=O)O)C(=O)N[C@@H](Cc1ccccc1)C(=O)N[C@H](C(=O)N[C@@H](CCC(=O)O)C(=O)N[C@@H](Cc1c[nH]c2ccccc12)C(=O)N[C@@H](CC(C)C)C(=O)N[C@@H](CCCCN)C(=O)N[C@@H](CC(N)=O)C(=O)N[C@H](C(=O)NCC(=O)N1CCC[C@H]1C(=O)N[C@@H](CO)C(=O)N[C@@H](CO)C(=O)NCC(=O)N[C@@H](C)C(=O)N1CCC[C@H]1C(=O)N1CCC[C@H]1C(=O)N1CCC[C@H]1C(=O)N[C@@H](CO)C(N)=O)[C@@H](C)O)[C@@H](C)CC)C(=O)O
Human GIP receptor
  EC50 hGIP R: 0.0144 nM
Human GLP-1 receptor
  EC50 hGLP-1 R: 0.0052 nM
Human glucagon receptor
  EC50 hGLUC R: 0.667 nM

B5: exendin-4 peptide analogue SEQ ID NO: 49 (peptide)
peptide: Y[Aib]QGTFTSDLSIQK([γGlu-Palmitoyl])DSIAAQDFIEWLKAGGPSSGAPPPS-NH2
modifications: N-terminus assumed
SMILES: CCCCCCCCCCCCCCCC(=O)N[C@@H](CCC(=O)NCCCC[C@H](NC(=O)[C@H](CCC(N)=O)NC(=O)[C@@H](NC(=O)[C@H](CO)NC(=O)[C@H](CC(C)C)NC(=O)[C@H](CC(=O)O)NC(=O)[C@H](CO)NC(=O)[C@@H](NC(=O)[C@H](Cc1ccccc1)NC(=O)[C@@H](NC(=O)CNC(=O)[C@H](CCC(N)=O)NC(=O)C(C)(C)NC(=O)[C@@H](N)Cc1ccc(O)cc1)[C@@H](C)O)[C@@H](C)O)[C@@H](C)CC)C(=O)N[C@@H](CC(=O)O)C(=O)N[C@@H](CO)C(=O)N[C@H](C(=O)N[C@@H](C)C(=O)N[C@@H](C)C(=O)N[C@@H](CCC(N)=O)C(=O)N[C@@H](CC(=O)O)C(=O)N[C@@H](Cc1ccccc1)C(=O)N[C@H](C(=O)N[C@@H](CCC(=O)O)C(=O)N[C@@H](Cc1c[nH]c2ccccc12)C(=O)N[C@@H](CC(C)C)C(=O)N[C@@H](CCCCN)C(=O)N[C@@H](C)C(=O)NCC(=O)NCC(=O)N1CCC[C@H]1C(=O)N[C@@H](CO)C(=O)N[C@@H](CO)C(=O)NCC(=O)N[C@@H](C)C(=O)N1CCC[C@H]1C(=O)N1CCC[C@H]1C(=O)N1CCC[C@H]1C(=O)N[C@@H](CO)C(N)=O)[C@@H](C)CC)[C@@H](C)CC)C(=O)O
Human GIP receptor
  EC50 hGIP R: 0.0456 nM
Human GLP-1 receptor
  EC50 hGLP-1 R: 0.0172 nM
Human glucagon receptor
  EC50 hGLUC R: 0.195 nM

B6: exendin-4 peptide analogue SEQ ID NO: 48 (peptide)
peptide: Y[Aib]QGTFTSDLSIQK([γGlu-Palmitoyl])DSEAAQDFIEWLKAGGPSSGAPPPS-NH2
modifications: N-terminus assumed
SMILES: CCCCCCCCCCCCCCCC(=O)N[C@@H](CCC(=O)NCCCC[C@H](NC(=O)[C@H](CCC(N)=O)NC(=O)[C@@H](NC(=O)[C@H](CO)NC(=O)[C@H](CC(C)C)NC(=O)[C@H](CC(=O)O)NC(=O)[C@H](CO)NC(=O)[C@@H](NC(=O)[C@H](Cc1ccccc1)NC(=O)[C@@H](NC(=O)CNC(=O)[C@H](CCC(N)=O)NC(=O)C(C)(C)NC(=O)[C@@H](N)Cc1ccc(O)cc1)[C@@H](C)O)[C@@H](C)O)[C@@H](C)CC)C(=O)N[C@@H](CC(=O)O)C(=O)N[C@@H](CO)C(=O)N[C@@H](CCC(=O)O)C(=O)N[C@@H](C)C(=O)N[C@@H](C)C(=O)N[C@@H](CCC(N)=O)C(=O)N[C@@H](CC(=O)O)C(=O)N[C@@H](Cc1ccccc1)C(=O)N[C@H](C(=O)N[C@@H](CCC(=O)O)C(=O)N[C@@H](Cc1c[nH]c2ccccc12)C(=O)N[C@@H](CC(C)C)C(=O)N[C@@H](CCCCN)C(=O)N[C@@H](C)C(=O)NCC(=O)NCC(=O)N1CCC[C@H]1C(=O)N[C@@H](CO)C(=O)N[C@@H](CO)C(=O)NCC(=O)N[C@@H](C)C(=O)N1CCC[C@H]1C(=O)N1CCC[C@H]1C(=O)N1CCC[C@H]1C(=O)N[C@@H](CO)C(N)=O)[C@@H](C)CC)C(=O)O
Human GIP receptor
  EC50 hGIP R: 0.0158 nM
Human GLP-1 receptor
  EC50 hGLP-1 R: 0.0101 nM
Human glucagon receptor
  EC50 hGLUC R: 0.478 nM
